± gives the standard deviation of the averaged measurements.
B1: library; a variant is named by its letters at N, in order (parent)
chain: GCUGUCACCGGUGCUUGGUACGUUAUAUUCAGCCGGUCUGAUGAGUCUNNNNNNAGACGAAACAGC

How the values were obtained:
(6R,S)-folinic acid [1] = variants of: B1; assay: normalized RNA/DNA level without ligand (relative to sTRSVctl = 100) (log10 (% of sTRSVctl)); HEK293T overexpressing SLC46A1; higher = less ribozyme self-cleavage, higher mRNA level; conditions: without (6R,S)-folinic acid; ligand present: no
Outline: (§1)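 HEK293T cells were transfected with library plasmids carrying ribozyme switches linked to an mCherry reporter, or an eGFP reporter in some ligand experiments, at 4 µg per well of a 6-well plate, with any ligand added 1 h beforehand. After 72 h, total RNA was extracted with EDTA, reverse-transcribed, amplified, barcoded and sequenced. RNA level was defined as RNA reads over DNA reads, normalized to a spiked-in non-cleaving sequence or to the top-ranked sequences. That value was multiplied by 100 and converted to log10, the top set was 25 sequences, and only sequences with ≥100 DNA reads were retained.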

(6R,S)-folinic acid [2] = variants of: B1; assay: normalized RNA/DNA level with ligand (relative to sTRSVctl = 100) (log10 (% of sTRSVctl)); HEK293T overexpressing SLC46A1; ligand concentration (+) RNA-Seq: 6 mM; higher = less ribozyme self-cleavage, higher mRNA level; conditions: with (6R,S)-folinic acid; ligand present: yes
Outline: as §1

| Variant | normalized RNA/DNA level without ligand (log10) ((6R,S)-folinic acid [1]) | normalized RNA/DNA level with ligand (log10) ((6R,S)-folinic acid [2]) |
| --- | --- | --- |
| CCACCU | 2.101 ± 0.015 | 2.07 ± 0.033 |
| CCACCA | 2.044 ± 0.012 | 2.01 ± 0.041 |
| CCACCG | 2.007 ± 0.018 | 2.01 ± 0.054 |
| CCACCC | 2.038 ± 0.011 | 1.994 ± 0.014 |
| CCAGAA | 1.982 ± 0.0051 | 1.98 ± 0.053 |
| CCAGAG | 1.909 ± 0.013 | 2.014 ± 0.019 |
| CCAGAC | 1.99 ± 0.023 | 1.98 ± 0.051 |
| CCAAUC | 2.028 ± 0.018 | 1.99 ± 0.049 |
| CCAAUA | 1.994 ± 0.0075 | 2 ± 0.036 |
| CCAAUU | 2.039 ± 0.0021 | 2.05 ± 0.037 |
| CCAAUG | 1.998 ± 0.0065 | 2.022 ± 0.019 |
| CCAGUU | 2.019 ± 0.013 | 2.02 ± 0.05 |
| CCAGUA | 2.027 ± 0.0027 | 2.05 ± 0.044 |
| CCAGUC | 2.06 ± 0.0079 | 2.0299 ± 0.00081 |
| CCAAGG | 2 ± 0.0033 | 1.991 ± 0.014 |
| CCAAGA | 2.0052 ± 0.00077 | 2.038 ± 0.0056 |
| CCAAGC | 2.098 ± 0.0093 | 2.0623 ± 0.001 |
| GCACCU | 2.028 ± 0.015 | 2.01 ± 0.035 |
| GCACCA | 2.04 ± 0.022 | 2 ± 0.039 |
| GCACCG | 2.055 ± 0.0053 | 2.05 ± 0.061 |
| GCACCC | 2.024 ± 0.004 | 2.012 ± 0.0027 |
| UCACCU | 2.051 ± 0.0042 | 2.06 ± 0.027 |
| UCACCA | 2.0085 ± 0.0017 | 2.006 ± 0.0035 |

| Variant | normalized RNA/DNA level without ligand (log10) ((6R,S)-folinic acid [1]) | normalized RNA/DNA level with ligand (log10) ((6R,S)-folinic acid [2]) |
| --- | --- | --- |
| UCACCC | 2.05 ± 0.025 | 2.04 ± 0.037 |
| UCACUG | 1.906 ± 0.0057 | 2.015 ± 0.02 |
| UCACUC | 2.07 ± 0.01 | 2.05 ± 0.026 |
| UCACUU | 2.021 ± 0.0092 | 2.04 ± 0.018 |
| UCACUA | 1.9969 ± 0.0017 | 2.019 ± 0.0085 |
| UAUUGU | 1.888 ± 0.012 | 2.005 ± 0.017 |
| UAUUGC | 1.941 ± 0.011 | 1.96 ± 0.034 |
| CAUUCU | 2.022 ± 0.0089 | 2.01 ± 0.056 |
| CAUUCA | 1.96 ± 0.02 | 1.9724 ± 0.001 |
| CAUUCC | 2.06 ± 0.033 | 2.02 ± 0.06 |
| CAUUCG | 2.037 ± 0.0077 | 2 ± 0.032 |
| UCAUCA | 2.05 ± 0.039 | 2.03 ± 0.044 |
| UCAUCC | 2.07 ± 0.051 | 2.05 ± 0.041 |
| UCAUCG | 1.997 ± 0.0043 | 2.01 ± 0.04 |
| UCAUCU | 2.064 ± 0.0079 | 2.055 ± 0.0055 |
| UCAUAC | 2.029 ± 0.0064 | 1.988 ± 0.019 |
| UCAUAG | 1.829 ± 0.0068 | 1.984 ± 0.015 |
| UCAUAU | 1.952 ± 0.0097 | 1.98 ± 0.03 |
| ACAUUA | 2.006 ± 0.017 | 2.02 ± 0.034 |
| ACAUUC | 2.072 ± 0.0067 | 2.027 ± 0.0058 |
| ACACUC | 2.05 ± 0.027 | 2.03 ± 0.031 |
| ACACUA | 2.017 ± 0.012 | 2.01 ± 0.043 |
| ACACUU | 1.996 ± 0.016 | 2.03 ± 0.027 |

| Variant | normalized RNA/DNA level without ligand (log10) ((6R,S)-folinic acid [1]) | normalized RNA/DNA level with ligand (log10) ((6R,S)-folinic acid [2]) |
| --- | --- | --- |
| ACACUG | 1.968 ± 0.01 | 2.03 ± 0.044 |
| CAUGUA | 1.947 ± 0.0027 | 1.99 ± 0.047 |
| CAUGUC | 2.03 ± 0.027 | 1.997 ± 0.0052 |
| UAUUUA | 1.98 ± 0.024 | 2.01 ± 0.021 |
| UCAAUU | 2.013 ± 0.011 | 2.02 ± 0.014 |
| UCAAUA | 1.9534 ± 0.0012 | 1.98 ± 0.031 |
| UCAAUC | 2.074 ± 0.0092 | 2.06 ± 0.048 |
| GCAACG | 1.982 ± 0.0082 | 2.014 ± 0.02 |
| GCAACA | 2.058 ± 0.0047 | 2.05 ± 0.038 |
| GCAACC | 2.033 ± 0.0054 | 2.019 ± 0.019 |
| UAUGUU | 1.95 ± 0.022 | 2 ± 0.023 |
| UAUGUA | 1.8903 ± 0.0016 | 1.99 ± 0.057 |
| UAUGUC | 2.05 ± 0.033 | 2.01 ± 0.049 |
| ACAUCG | 2.006 ± 0.014 | 2.07 ± 0.027 |
| ACAUCU | 2.024 ± 0.011 | 2.03 ± 0.037 |
| CCAGGA | 1.993 ± 0.00019 | 1.98 ± 0.036 |
| CCAGGG | 1.99 ± 0.021 | 2.038 ± 0.018 |
| CCAGGU | 2.026 ± 0.0082 | 2.05 ± 0.033 |
| CCAGGC | 2.094 ± 0.018 | 2.05 ± 0.026 |
| UCACGU | 1.98 ± 0.036 | 2.01 ± 0.03 |
| UCACGA | 2.019 ± 0.0037 | 2.03 ± 0.028 |
| UCACGG | 1.965 ± 0.019 | 2 ± 0.043 |
| UCACGC | 2.036 ± 0.0036 | 1.97 ± 0.023 |

| Variant | normalized RNA/DNA level without ligand (log10) ((6R,S)-folinic acid [1]) | normalized RNA/DNA level with ligand (log10) ((6R,S)-folinic acid [2]) |
| --- | --- | --- |
| CAUGGU | 1.903 ± 0.019 | 1.95 ± 0.037 |
| GCAGUG | 1.9 ± 0.021 | 2.02 ± 0.038 |
| GCAGUC | 2.046 ± 0.0028 | 2.05 ± 0.048 |
| GCAGUU | 2.03 ± 0.0047 | 2.04 ± 0.053 |
| UCAAGU | 1.984 ± 0.0097 | 2.02 ± 0.045 |
| UCAAGG | 1.96 ± 0.023 | 2 ± 0.033 |
| UAUGGU | 1.8765 ± 0.0006 | 1.98 ± 0.026 |
| ACAAUU | 2.018 ± 0.0076 | 2.044 ± 0.018 |
| ACAAUC | 2.043 ± 0.01 | 2.03 ± 0.031 |
| UCAAAG | 1.817 ± 0.0038 | 1.98 ± 0.032 |
| UCAAAU | 1.96 ± 0.017 | 2.004 ± 0.017 |
| CCACAG | 1.95 ± 0.026 | 2 ± 0.024 |
| CCACAC | 1.99 ± 0.02 | 1.967 ± 0.0084 |
| CCACAU | 1.961 ± 0.004 | 1.98 ± 0.072 |
| GCAAGU | 2.009 ± 0.012 | 2.023 ± 0.02 |
| GCAAGC | 2.011 ± 0.0087 | 2.023 ± 0.014 |
| AAUUGC | 2.006 ± 0.0074 | 2.01 ± 0.039 |
| ACAUGA | 1.979 ± 0.01 | 2.034 ± 0.019 |
| ACAUGU | 2.022 ± 0.0056 | 2.02 ± 0.023 |
| ACAUGC | 2.014 ± 0.014 | 2.04 ± 0.07 |
| ACAACU | 2.014 ± 0.0094 | 2.03 ± 0.045 |
| ACAACG | 1.991 ± 0.019 | 2.06 ± 0.021 |
| ACAACC | 2.035 ± 0.0087 | 2.03 ± 0.025 |

| Variant | normalized RNA/DNA level without ligand (log10) ((6R,S)-folinic acid [1]) | normalized RNA/DNA level with ligand (log10) ((6R,S)-folinic acid [2]) |
| --- | --- | --- |
| GCACGC | 2.025 ± 0.0075 | 2.024 ± 0.02 |
| GCACGU | 1.99 ± 0.02 | 2.01 ± 0.023 |
| GCACGA | 2.029 ± 0.005 | 2.03 ± 0.038 |
| GCACGG | 1.997 ± 0.016 | 2.006 ± 0.018 |
| ACAAGU | 2.022 ± 0.0081 | 2.02 ± 0.028 |
| ACAAGC | 2.033 ± 0.01 | 2.02 ± 0.04 |
| ACAAGA | 1.974 ± 0.0046 | 2.02 ± 0.031 |
| UAUUCA | 2.019 ± 0.0067 | 2.05 ± 0.037 |
| UAUUCU | 1.99 ± 0.039 | 2.04 ± 0.048 |
| UAUUCG | 1.735 ± 0.0046 | 1.94 ± 0.063 |
| UAUUCC | 1.972 ± 0.0012 | 1.986 ± 0.0039 |
| GCAUAC | 1.9845 ± 0.0011 | 2.03 ± 0.033 |
| AAUUAC | 1.982 ± 0.0057 | 2.01 ± 0.026 |
| AAUUAA | 1.95 ± 0.021 | 1.98 ± 0.025 |
| AAUUAU | 1.983 ± 0.013 | 2.03 ± 0.038 |
| AAUUAG | 1.94 ± 0.0025 | 2.01 ± 0.027 |
| CCACGA | 2.011 ± 0.0078 | 2.019 ± 0.009 |
| CCACGG | 2.06 ± 0.029 | 2.04 ± 0.048 |
| CCACGC | 2.01 ± 0.022 | 2.01 ± 0.025 |
| CCAACA | 2.033 ± 0.011 | 2 ± 0.047 |
| CCAACG | 2.0184 ± 0.002 | 2.01 ± 0.041 |
| CCAACC | 2.027 ± 0.016 | 1.99 ± 0.042 |
| CCAACU | 2.049 ± 0.0064 | 2.053 ± 0.02 |
